Assay results reported in the supplement of paper PMC5998384.

Experiments:
[1] = test system: HeLa Kyoto; experiment: solubility in G1/S (NP-40 vs SDS abundance) (log2 ratio); higher = more soluble; conditions: cell cycle stage: G1/S
[2] = test system: HeLa Kyoto; experiment: melting temperature (median over replicates), in situ; higher = more thermally stable
[3] = test system: HeLa Kyoto; experiment: solubility change mitosis vs G1/S (difference of NP-40 vs SDS log2 ratios) (log2 ratio difference); higher = more soluble in mitosis
[4] = test system: HeLa Kyoto; experiment: thermal stability score vs G1/S (z-score of summed log2 fold changes over temperatures); higher = more thermally stable than in G1/S
[5] = cell cycle stage: early G1 (4.5 h after nocodazole release)
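For melting temperature (median over replicates), in situ in this document: HeLa Kyoto cells synchronized by double thymidine or nocodazole block, proteins quantified by TMT10plex mass spectrometry, three independent biological replicates.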
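For solubility change mitosis vs G1/S (difference of NP-40 vs SDS log2 ratios) in this document: synchronized HeLa Kyoto cells (double thymidine block for G1/S, nocodazole release for mitosis), protein amounts in NP-40 versus SDS lysates quantified by mass spectrometry, three biological replicates.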
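For solubility in G1/S (NP-40 vs SDS abundance) in this document: HeLa Kyoto cells arrested at G1/S by double thymidine block, proteins quantified by TMT10plex mass spectrometry in mild NP-40 versus SDS extracts, three biological replicates.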
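For thermal stability score vs G1/S (z-score of summed log2 fold changes over temperatures) in this document: synchronized HeLa Kyoto cells, proteins quantified by TMT10plex mass spectrometry, three biological replicates, mitosis taken 0.5 h after nocodazole release, G1/S directly after double thymidine block.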

| Sequence | solubility in G1/S (log2) [1] | melting temperature ([2]; cell cycle stage: G1/S) | melting temperature ([2]; cell cycle stage: mitosis) | solubility change mitosis (log2) [3] | thermal stability score [4, 5] | thermal stability score ([4]; cell cycle stage: mitosis) |
| --- | --- | --- | --- | --- | --- | --- |
| MLYFSLFWAARPLQRCGQLVRMAIRAQHSNAAQTQTGEANRGWTGQESLSDSDPEMWELLQREKDRQCRGLELIASENFCSRAALEALGSCLNNKYSEGYPGKRYYGGAEVVDEIELLCQRRALEAFDLDPAQWGVNVQPYSGSPANLAVYTALLQPHDRIMGLDLPDGGHLTHGYMSDVKRISATSIFFESMPYKLNPKTGLIDYNQLALTARLFRPRLIIAGTSAYARLIDYARMREVCDEVKAHLLADMAHISGLVAAKVIPSPFKHADIVTTTTHKTLRGARSGLIFYRKGVKAVDPKTGREIPYTFEDRINFAVFPSLQGGPHNHAIAAVAVALKQACTPMFREYSLQVLKNARAMADALLERGYSLVSGGTDNHLVLVDLRPKGLDGARAERVLELVSITANKNTCPGDRSAITPGGLRLGAPALTSRQFREDDFRRVVDFIDEGVNIGLEVKSKTAKLQDFKSFLLKDSETSQRLANLRQRVEQFARAFPMPGFDEH [SHMT2] | 0.416 | 56.7 °C | 56.8 °C | -0.0179 | 0.0206 | 0.314 |
| MMAAEAGSEEGGPVTAGAGGGGAAAGSSAYPAVCRVKIPAALPVAAAPYPGLVETGVAGTLGGGAALGSEFLGAGSVAGALGGAGLTGGGTAAGVAGAAAGVAGAAVAGPSGDMALTKLPTSLLAETLGPGGGFPPLPPPPYLPPLGAGLGTVDEGDSLDGPEYEEEEVAIPLTAPPTNQWYHGKLDRTIAEERLRQAGKSGSYLIRESDRRPGSFVLSFLSQMNVVNHFRIIAMCGDYYIGGRRFSSLSDLIGYYSHVSCLLKGEKLLYPVAPPEPVEDRRRVRAILPYTKVPDTDEISFLKGDMFIVHNELEDGWMWVTNLRTDEQGLIVEDLVEEVGREEDPHEGKIWFHGKISKQEAYNLLMTVGQVCSFLVRPSDNTPGDYSLYFRTNENIQRFKICPTPNNQFMMGGRYYNSIGDIIDHYRKEQIVEGYYLKEPVPMQDQEQVLNDTVDGKEIYNTIRRKTKDAFYKNIVKKGYLLKKGKGKRWKNLYFILEGSDAQLIYFESEKRATKPKGLIDLSVCSVYVVHDSLFGRPNCFQIVVQHFSEEHYIFYFAGETPEQAEDWMKGLQAFCNLRKSSPGTSNKRLRQVSSLVLHIEEAHKLPVKHFTNPYCNIYLNSVQVAKTHAREGQNPVWSEEFVFDDLPPDINRFEITLSNKTKKSKDPDILFMRCQLSRLQKGHATDEWFLLSSHIPLKGIEPGSLRVRARYSMEKIMPEEEYSEFKELILQKELHVVYALSHVCGQDRTLLASILLRIFLHEKLESLLLCTLNDREISMEDEATTLFRATTLASTLMEQYMKATATQFVHHALKDSILKIMESKQSCELSPSKLEKNEDVNTNLTHLLNILSELVEKIFMASEILPPTLRYIYGCLQKSVQHKWPTNTTMRTRVVSGFVFLRLICPAILNPRMFNIISDSPSPIAARTLILVAKSVQNLANLVEFGAKEPYMEGVNPFIKSNKHRMIMFLDELGNVPELPDTTEHSRTDLSRDLAALHEICVAHSDELRTLSNERGAQQHVLKKLLAITELLQQKQNQYTKTNDVR [RASA1] | -0.0958 | 49.8 °C | 50.1 °C | -0.135 | 0.554 | 0.915 |
| MMAAVPPGLEPWNRVRIPKAGNRSAVTVQNPGAALDLCIAAVIKECHLVILSLKSQTLDAETDVLCAVLYSNHNRMGRHKPHLALKQVEQCLKRLKNMNLEGSIQDLFELFSSNENQPLTTKVCVVPSQPVVELVLMKVLGACKLLLRLLDCCCKTFLLTVKHLGLQEFIILNLVMVGLVSRLWVLYKGVLKRLILLYEPLFGLLQEVARIQPMPYFKDFTFPSDITEFLGQPYFEAFKKKMPIAFAAKGINKLLNKLFLINEQSPRASEETLLGISKKAKQMKINVQNNVDLGQPVKNKRVFKEESSEFDVRAFCNQLKHKATQETSFDFKCSQSRLKTTKYSSQKVIGTPHAKSFVQRFREAESFTQLSEEIQMAVVWCRSKKLKAQAIFLGNKLLKSNRLKHLEAQGTSLPKKLECIKTSICNHLLRGSGIKTSKHHLRQRRSQNKFLRRQRKPQRKLQSTLLREIQQFSQGTRKSATDTSAKWRLSHCTVHRTDLYPNSKQLLNSGVSMPVIQTKEKMIHENLRGIHENETDSWTVMQINKNSTSGTIKETDDIDDIFALMGV [NEPRO] | -0.993 | 49.7 °C | 50.3 °C | 0.574 | -0.703 | -1.65 |
| MMADGAAAGAGGSPSLRELRARMVAAANEIAKERRKQDVVNRVATHSSNIRSTFKPVIDGSMLKNDIKQRLARERREEKRRQQDANKETQLLEKERKTKLQYEKQMEERQRKLKERKEKEEQRRIAAEEKRHQKDEAQKEKFTAILYRTLERRRLADDYQQKRWSWGGSAMANSESKTANKRSASTEKLEQGTSALIRQMPLSSAGLQNSVAKRKTDKERSSSLNRRDSNLHSSTDKEQAERKPRVTGVTNYVMQYVTVPLRKCTSDELRAVMFPMSTMKIPPQTKVEESPLEKVETPPKASVDAPPQVNVEVFCNTSMEASPKAGVGMAPEVSTDSFPVVSVDVSPVVSTYDSEMSMDASPELSIEALPKVDLETVPKVSIVASPEASLEAPPEVSLEALPEVSVEAAPEGSLEAPPKGSAEVAPKESVKGSPKESMEASPEAMVKASPKTSLEASMEASPKAKARDAPKKSEMDKQALIPIAKKRLSSYTECYKWSSSPENACGLPSPISTNRQIQKNCPPSPLPLISKQSPQTSFPYKIMPIQHTLSVQSASSTVKKKKETVSKTTNRCEALSQRHMIYEESGNKSTAGIMNAEAATKILTELRRLAREQREKEEEERQREEMQQRVIKKSKDMAKEAVGGQAEDHLKLKDGQQQNETKKKKGWLDQEDQEAPLQKGDAKIKAQEEADKRKKEHERIMLQNLQERLERKKRIEEIMKRTRKTDVNASKVTETSSHDIYEEAEADNEESDKDSLNEMFPSAILNGTGSPTKFKMPFNNAKKMTHKLVFLEDGTSQVRKEPKTYFNGDLKNFRQKSMKDTSIQEVVSRPSSKRMTSHTTKTRKADETNTTSRSSAQTKSEGFHDILPKSSDTFRQ [MAP7D3] | -0.211 | 50.4 °C | 52.8 °C | 0.189 | 2.41 | 6.63 |
| MMEDDGQPRTLYVGNLSRDVTEVLILQLFSQIGPCKSCKMITEHTSNDPYCFVEFYEHRDAAAALAAMNGRKILGKEVKVNWATTPSSQKKDTSNHFHVFVGDLSPEITTEDIKSAFAPFGKISDARVVKDMATGKSKGYGFVSFYNKLDAENAIVHMGGQWLGGRQIRTNWATRKPPAPKSTQENNTKQLRFEDVVNQSSPKNCTVYCGGIASGLTDQLMRQTFSPFGQIMEIRVFPEKGYSFVRFSTHESAAHAIVSVNGTTIEGHVVKCYWGKESPDMTKNFQQVDYSQWGQWSQVYGNPQQYGQYMANGWQVPPYGVYGQPWNQQGFGVDQSPSAAWMGGFGAQPPQGQAPPPVIPPPNQAGYGMASYQTQ [TIAL1] | 0.13 | 52.3 °C | 52 °C | -0.0732 | -1.16 | -2.29 |
| MMEERAAAAVAAAASSCRPLGSGAGPGPTGAAPVSAPAPGPGPAGKGGGGGGSPGPTAGPEPLSLPGILHFIQHEWARFEAEKARWEAERAELQAQVAFLQGERKGQENLKTDLVRRIKMLEYALKQERAKYHKLKFGTDLNQGEKKADVSEQVSNGPVESVTLENSPLVWKEGRQLLRQYLEEVGYTDTILDMRSKRVRSLLGRSLELNGAVEPSEGAPRAPPGPAGLSGGESLLVKQIEEQIKRNAAGKDGKERLGGSVLGQIPFLQNCEDEDSDEDDELDSVQHKKQRVKLPSKALVPEMEDEDEEDDSEDAINEFDFLGSGEDGEGAPDPRRCTVDGSPHELESRRVKLQGILADLRDVDGLPPKVTGPPPGTPQPRPHEDVFIMDTIGGGEVSLGDLADLTVTNDNDLSCDLSDSKDAFKKTWNPKFTLRSHYDGIRSLAFHHSQSALLTASEDGTLKLWNLQKAVTAKKNAALDVEPIHAFRAHRGPVLAVAMGSNSEYCYSGGADACIHSWKIPDLSMDPYDGYDPSVLSHVLEGHGDAVWGLAFSPTSQRLASCSADGTVRIWDPSSSSPACLCTFPTASEHGVPTSVAFTSTEPAHIVASFRSGDTVLYDMEVGSALLTLESRGSSGPTQINQVVSHPNQPLTITAHDDRGIRFLDNRTGKPVHSMVAHLDAVTCLAVDPNGAFLMSGSHDCSLRLWSLDNKTCVQEITAHRKKHEEAIHAVACHPSKALIASAGADALAKVFV [STRN4] | 0.104 | 50.6 °C | 50.4 °C | -0.085 | 0.143 | 0.0318 |
| MMGLGNGRRSMKSPPLVLAALVACIIVLGFNYWIASSRSVDLQTRIMELEGRVRRAAAERGAVELKKNEFQGELEKQREQLDKIQSSHNFQLESVNKLYQDEKAVLVNNITTGERLIRVLQDQLKTLQRNYGRLQQDVLQFQKNQTNLERKFSYDLSQCINQMKEVKEQCEERIEEVTKKGNEAVASRDLSENNDQRQQLQALSEPQPRLQAAGLPHTEVPQGKGNVLGNSKSQTPAPSSEVVLDSKRQVEKEETNEIQVVNEEPQRDRLPQEPGREQVVEDRPVGGRGFGGAGELGQTPQVQAALSVSQENPEMEGPERDQLVIPDGQEEEQEAAGEGRNQQKLRGEDDYNMDENEAESETDKQAALAGNDRNIDVFNVEDQKRDTINLLDQREKRNHTL [GOLM1] | -0.0257 | 55.9 °C | 59.3 °C | 0.556 | -2.29 | -1.82 |
| MMKLRHKNKKPGEGSKGHKKISWPYPQPAKQNGKKATSKVPSAPHFVHPNDHANREAELKKKWVEEMREKQQAAREQERQKRRTIESYCQDVLRRQEEFEHKEEVLQELNMFPQLDDEATRKAYYKEFRKVVEYSDVILEVLDARDPLGCRCFQMEEAVLRAQGNKKLVLVLNKIDLVPKEVVEKWLDYLRNELPTVAFKASTQHQVKNLNRCSVPVDQASESLLKSKACFGAENLMRVLGNYCRLGEVRTHIRVGVVGLPNVGKSSLINSLKRSRACSVGAVPGITKFMQEVYLDKFIRLLDAPGIVPGPNSEVGTILRNCVHVQKLADPVTPVETILQRCNLEEISNYYGVSGFQTTEHFLTAVAHRLGKKKKGGLYSQEQAAKAVLADWVSGKISFYIPPPATHTLPTHLSAEIVKEMTEVFDIEDTEQANEDTMECLATGESDELLGDTDPLEMEIKLLHSPMTKIADAIENKTTVYKIGDLTGYCTNPNRHQMGWAKRNVDHRPKSNSMVDVCSVDRRSVLQRIMETDPLQQGQALASALKNKKKMQKRADKIASKLSDSMMSALDLSGNADDGVGD [GNL3L] | -0.846 | 48.1 °C | 50.3 °C | 0.334 | 3.18 | 4.42 |
| MMLRGNLKQVRIEKNPARLRALESAVGESEPAAAAAMALALAGEPAPPAPAPPEDHPDEEMGFTIDIKSFLKPGEKTYTQRCRLFVGNLPTDITEEDFKRLFERYGEPSEVFINRDRGFGFIRLESRTLAEIAKAELDGTILKSRPLRIRFATHGAALTVKNLSPVVSNELLEQAFSQFGPVEKAVVVVDDRGRATGKGFVEFAAKPPARKALERCGDGAFLLTTTPRPVIVEPMEQFDDEDGLPEKLMQKTQQYHKEREQPPRFAQPGTFEFEYASRWKALDEMEKQQREQVDRNIREAKEKLEAEMEAARHEHQLMLMRQDLMRRQEELRRLEELRNQELQKRKQIQLRHEEEHRRREEEMIRHREQEELRRQQEGFKPNYMENREQEMRMGDMGPRGAINMGDAFSPAPAGNQGPPPMMGMNMNNRATIPGPPMGPGPAMGPEGAANMGTPMMPDNGAVHNDRFPQGPPSQMGSPMGSRTGSETPQAPMSGVGPVSGGPGGFGRGSQGGNFEGPNKRRRY [PSPC1] | 0.205 | 49.1 °C | 48.7 °C | 0.177 | 1 | 1.79 |
